A short description of the series: soluble on expression in E. coli; label from the status in PepcDB or PDB records.
Consider “MKTVRIETFGCKVNQYESEYMAEQLEKAGYVVLPDGNAAYYIVNSCAVTKEVEKKVKRLIKSIRNRNKNAKIILTGCFAQLSPDEAKNLPVDMVLGIDEKKHIVDHINSLNGKQQVVVSEPGRPVYEKVKGSFEDRTRSYIKVEDGCDNTCTYCAIRLARGTRIRSKPLEIFKEEFAEMVMKGYKEIVITGVNLGKYGKDMGSSLAELLKVIEKVPGDYRVRLSSINVEDVNDEIVKAFKRNPRLCPHLHISVQSGSDDVLKRMGRKYKISDFMRVVDKLRSIDPDFSITTDIIVGFPGETDADFQRTLELVEKVEFSRVHIFRFSPRPGTPASRMEGGVPESKKKERLDVLKEKAKDVSIRYRKRIIGKERKVLAEWYVMKGVLSGYDEYYVKHEFVGNRVGEFHSVRVKSLSEEGVISCRADMVEGKVPARGLEHHHHHH”, for which the “soluble on expression in E. coli” value is on record as “soluble”.
In the case of “MHKNLFHWLMERGYQVLVEKEVAITLELPFEHLATLEEIGHRAQLAIVIGGDGNMLGRARVLAKYDIPLIGINRGNLGFLTDIDPKNAYSQLEACLERGEFFVEERFLLEAKIERASEIVSTSNAVNEAVIHPAKIAHMIDFHVYINDKFAFSQRSDGLIVSTPTGSTAYSLSAGGPILTPNLNAIALVPMFPHTLTSRPLVVDGDSKISIRFAEHNTSQLEVGCDSQITLPFTPDDVVHIQKSEHKLRLLHLKIIIITMC”, the “soluble on expression in E. coli” value is “soluble”.
The same measure for “MSLDDQITNAAEKGVTDRFYGLIPNGYLFIENGLISAFGPMSALQENLTNSTAMSQIDDAIDAAGRLLTPALIDCHTHVVYGGHRALEFEMRLKGASYAEMAKAGGGIVSTVSATRSQSVEQLVQGALARVDALIAEGISLIEIKSGYGLDIETELRMLRAARSIEAARPVRVITSFLGAHAMPPGEDMSPEGYIEKTCIPALHQAHKEGLVDAVDGFCESIAFSADQIVPLFNVAAELGLPVKLHAEQLTRCGGSLLAASHKALSVDHVEYANKEDVRALAAAGCSAVLLPGAFYTLRETQKPPVALFRDQGVPMAIATDANPGSSPMTSLLLAMNMGCTLFGMTPYEALAGVTRNAARALGVSDSGMLRPGLRADLALWDVAHPAELAYRIGFNPLHRRIFGGQIAEGHHHHHH”: “soluble”; for “MGSDKIHHHHHHMDTAPLLPSSIRDQFTREVVYLNTATCGLPPRVAHEATLAVERDRARGRLTLDIAHQAVERSRAAFARLVGVPVSRVAVGSQASFFVGLVAASLPPGATVVVAEEDFTSVTYPFLAATGRGVTVRPVPLDRIIDAVDTSVDLVSVSVVQSADGRIVDVPALLDAAATHGARVLLDTTQSSGWLPIPADRVDYLVCSAYKWLLGPRGACFFAGTDDALAELTPIAANWFAAEDITSAFYGTELRLASDARRFDLSPAWASCVGLAPALELLADLGEAALGAHNVALANRFCAALGLPPTDSAIVSVAVDAKAQQVLADAGIVAAMRAGRMRCAFHLSTDAADVDRAVEEIGPYLRDANLEEAVRVPGDR”: “not soluble”; for “MVWLANPERYGQMQYRYCGKSGLRLPALSLGLWHNFGHVNALESQRAILRKAFDLGITHFDLANNYGPPPGSAEENFGRLLREDFAAYRDELIISTKAGYDMWPGPYGSGGSRKYLLASLDQSLKRMGLEYVDIFYSHRVDENTPMEETASALAHAVQSGKALYVGISSYSPERTQKMVELLREWKIPLLIHQPSYNLLNRWVDKSGLLDTLQNNGVGCIAFTPLAQGLLTGKYLNGIPQDSRMHREGNKVRGLTPKMLTEANLNSLRLLNEMAQQRGQSMAQMALSWLLKDDRVTSVLIGASRAEQLEENVQALNNLTFSTKELAQIDQHIADGELNLWQASSDK”: “soluble”.
The same measure for “MGSDKIHHHHHHMARLAKIKVKTLEQRLWDTADALRGNQEPSEYKHVVLGLVFLKYISDRFEERRRAIETSLSDPNSEEYIPNEARRSEFLEDRDEYASHNVFWVPELARWGYLQDNAKLPKIGQQLDQAMDLIEKENPIIRGVLPRNYGREGLDKSRLGQLVDLIGSIGFTESDDHGSDDVLGRVYEYFLGQFAGKETGKDAGAFYTPRSVVKTLVEMLEPFHGRVYDPACGSGGMFVQSAEFVTAHGGERTDISVYGQEFTDTTWKLAKMNLALRGIEADLGDRSADSFTQDLHRDLRADFIIANPPFNVSNWWNAKLADDPRWKYGTPPEGNANFAWVQHFLHHLSPKGTAGFVLSNGSLSSKSSGEGEIRRKLVEADLVDCIVAMPDKLFFNTGIPVSLWFISKERHGNGHRARQGEVLFIDASKLGRMENRRLRVLDDDRDIAKIAGAYHAWRNHDGGYEDVPGFVVAATLEEIRQHDFVLTPGRYVGTKEAEADWEPVEDKIARLTGELYAEFERGRKLEEVVRERLGGLNAD”: “not soluble”.
The same measure for “MTTNLTNSNCVEEYKENGKTKIRIKPFNALIELYHHQTPTGSIKENLDKLENYVKDVVKAKGLAIPTSGAFSNTRGTWFEVMIAIQSWNYRVKRELNDYLIIKMPNVKTFDFRKIFDNETREKLHQLEKSLLTHKQQVRLITSNPDLLIIRQKDLIKSEYNLPINKLTHENIDVALTLFKDIEGKCKWDSLVAGVGLKTSLRPDRRLQLVHEGNILKSLFAHLKMRYWNPKAEFKYYGASSEPVSKADDDALQTAATHTIVNVNSTPERAVDDIFSLTSFEDIDKMLDQIIKK”: “soluble”; for “MSDGFSVDPAELEGFAGVAEGHAGTAGQIKGLVDRADVGDKSWGVVGLFVKSTYTGMLGDLKELFGDLEEGLRGVGERFRATAEDYRGPEEAIQRAFDGIDTGSGGR”: “not soluble”.
As for “MAFLKIDNGELLKNIRQFAKKNGLTLAEVATLAGLSASAIYSWKKHTPSVGTLKEVAQVLGTSYTKLVGKDKEPTAKATNAAAVDLKKVIENKKNQFEYDGQPITNEQMKIIRNVLKSMFKTPRL”, the “soluble on expression in E. coli” value was “not soluble”.
The same measure for “VIEPARGLGDGNIERKIRGLLDSWMTWNHSFQGSCMFLDAWNDAADKNCPLQAALRKAIDTWLSYLEIQIAKGKENQEFISDLDTRQATFDLYGQYLSAHVFYSIKGEEESLRLFWQGIDNLLARWRG”: “not soluble”; for “MGSDKIHHHHHHMRNTAVAEQPASVPAMSRLTRQRLHDTVVEYLRDYIVKGVLAPGVKLNERELCETLGISRTPLREAIKVLAAEGLIEISANRGAAVTKLAESEIDEMFELMSGLEAFAGELACERITPHEIAEIKALHYAMVACREREDLSGYYGYNQQIHDRINGAARNCALRQTYLSINRRLQAMRFKSNFHKSKRDHAVHDHEEMIKALESRDGKRLSAILRQHLLDKRDVVLVTLATARETPATGGR”: “not soluble”.
As to “MAHHHHHHMGLMLPKPILSKVVDRAGNSFVNAACASQNGFRNSMEDAHMLVATDDADVAYFGIFDGHSNAECSAYVARELPQRLKKLPESITAEMLEKVCIEVDEAYMKTSTEGGTTGTFCVIRKDLTVTIANVGDSRILVCRGGKLIFATEDHKPYIPGETERIVACGGSVVSNRVDGDLAVSRAFGDASFKVKGTKDYRMQKVIAVPDVSVLQCEPNDFIILACDGVFEGNFSNEDVCQFVWEQQQNCWDDLAVVACRVCDEAIRCGSKDNISCLVVQLAEGASRVKAFGATSFVPGPPFPRNQQPCRAAYAQMAELGHTTTAAALQTRYQLLQAFSKNKLNSQPPVMRTAFEMSDEVDVETEWSFFGKGPAPGNEKNFFEALANTGNSS”, the “soluble on expression in E. coli” value was “soluble”.
For “MKKLLLTLVSSSLLVACSQRTESMEDKSIAPCGDKPNCISTLDEREEFTVKPFILTSSANMKAISHIASQLKGAKLVDINNDYARIECTSSVFRFVDDLELRIYGNTLIVRSESRTGYSDFGVNRKRVEKLRTLLEEKGLISQLEHHHHHH” the value was “not soluble”.
The same measure for “MSELTKAQQYNFNKLQKKIRRNTGNAIADYNMIEDGDRIMVCLSGGKDSFTMLDILMSLKKSAPISFDLIAVNLDQKQPGFPAHILPEYLEKLGVEYKIVEEDTYSIVQDKIPEGKTTCSLCSRLRRGILYRTAKELGATKIALGHHRDDILETMFLNMFYGGKLKGMPPKLVSDNGEHVVIRPLAYCREKDIIKYADMRDYPIIPCNLCGSQPNMQRQNVKQMLNTWDKQFPGRIETMFTAMQNVVPSHLADFNTFDFKSINRDSGVINGGDIGFDKEEMPTLPVDADDAVAEFDPSLKLDVVNVD”: “not soluble”; for “MEFIPPKRMLELIKHYSTTFKNWYSVMLGIYLHRERIKCTLRNGQTLYLTPNEAVLLAGLRIIELDCNTVKFSFNGREITLRGWRLSDPGDSFSDYWRINVKGKRVLDIGAGVGDSSIYFSTMGAKEVVAVEIDKKKIELMRENLRTNGINNVIVVDKGVGTVDNENFISWERLIKDYGPFDDAKIDCDGCERLISPFIKEIPELLIEWDSDYKDVVKNLSKNGYKIRVEHTLKNLGFIYAKRE”: “soluble”.
For “MDSPRVERFRAQVTDTFVPNLTWAMAPVTATINLFQDFQSYQRLAQQNRELRSELRRMQAWKEAALQLEQENARLLDLNNVRLDPRLTYITGVVLADSGSPFRQSVLINVGSRDGLVDGWATMDGIGLVGRISGVADKTARVILLTDASSRIPAIIQPSGQRVIVSGDNSAAPFIDFLEDSDLVKPGHRVISSGDGGVFPAGLLIGQVAADPTGKLRVIMAADYQRLEFLRVLRHHGTTTVSDSAQIIGPQLPVAEATQLEHHHHHH” the value was “not soluble”; for “MEIKLEEILKKQPLYSGKAKSIYEIDDDKVLIEFRDDITAGNGAKHDVKQGKGYLNALISSKLFEALEENGVKTHYIKYIEPRYMIAKKVEIIPIEVIVRNIAAGSLCRRYPFEEGKELPFPIVQFDYKNDEYGDPMLNEDIAVALGLATREELNKIKEIALKVNEVLKKLFDEKGIILVDFKIEIGKDREGNLLVADEISPDTMRLWDKETRDVLDKDVFRKDLGDVIAKYRIVAERLGLL”, “soluble”; for “MPAGHEDIGLPQDDEAFMRYRERRIQELCGKVEEVVSEKELIEKTKSLRMIVHFYKPEFKRCKTMDKGLEEVKDCFPGIRFYRVNAEICPVVARKLEIRVLPFLGFFKDGYFVDQVVGFEKLGGDSVEPEVLKKRILDSNIFKPISSI”, “not soluble”.
Take “MKFDDSKPIYKQIVHYIHTEIVTGTYEAGDKLLSVRELATKLEVNPTTIQRAYAELEEAGIIFTVRGTGKYLTEDKRRIEQLENHIAKQLTENFISEMSKLGINKEKIIAWVKKVEEVEVNASGK”: the “soluble on expression in E. coli” value is given as “not soluble”.
For “MVGLADVAVLYSGGKDSNYALYWALKSGLRVRYLVSMVSENEESYMYHTPNVELTSLQARALGIPIIKGFTKGEKEKEVEDLKNVLEGLKVDGIVAGALASRYQKERIENVARELGLKVYTPAWEKDPYQYMLEIIKLGFKVVFVAVSAYGLNESWLGRELNYKNLEELKKLSEKYGIHIAGEGGEFETFVLDMPFFKAKIVIDDAEKFWDGLSGKFIIKRAHLEWK” the value was “soluble”.
For “GPGSMVACTRLRRTQKVAKQKTETASNSHPRTSFLRRGRSTDCDIGALHVAATRVTLSVSHYATLLEGSVICVCFGFRLAAAAATNQLASSRLYRVPFAPLTSGLTNEKVLLRWSVAMSRKDAERKLTEDDCLTSSQQYDPQLIFYVPLRRKGYQAIDASAFVRCGGLRVVDISGNRLSTLSGLESVAPQLTFLNAAENSLHDIGALVTCAALERCMLEGNKLASVDSLQPLVSLPCLAELVLQRHVPLDDAAIGSGSPEQSSDKLLLLDNPVCRDAVAYREHFLAKMSHVRWVDGVSTYLRASSLAESTTTESHDAKENSTKAIVDAAIRSFQSIRVQMTATVSEETTLRHQLERAADRCKPSTVTVAARTP” the value was “not soluble”.

These data come from the DeepSol protein solubility set.
